Test results taken from article PMC9850916 (Biochemistry, 2022).

Columns and labels:
Assay in all cases: SPR
[1] = biological target: papain-digested Fc fragment of commercially available rituximab (human, N-glycosylated)
[2] = biological target: IgG1-Fc fragment produced by Expi293 cells (human, N-glycosylated)
[3] = biological target: maltose-binding protein-linked IgG1-Fc fragment ( | human, N-glycosylated Fc)

B1: mutant human FcγRIIIa (V158) ectodomain (amino acid residues 1–175) with nine amino acid mutations a (receptor)
chain: RTEDLPKAEVILEPQWNRVLEKDSVTLKCRGAYSPEDNSTQWFHNESLISSQASSYLIDAATVDDSGEYRCQTSLSTLSDPVQLEVHIGWLLLQAPRWEFKEGDPIHLRCHSWKNTALHKVTYLQNGKGRKYFHHNSDFYIPKATLKDSGSYSCRGLVGSKNVSSETVNITITQG
For B1, the Kd [1] was 1.66 µM, the koff [1] was 0.0721 s⁻¹ and the kon [1] was 43900 M⁻¹ s⁻¹. It also gave a Kd [2] of 1.68 µM, a koff [2] of 0.0802 s⁻¹ and a kon [2] of 47800 M⁻¹ s⁻¹. For the same binder, the Kd [3] was 3.47 µM, the koff [3] was 0.0635 s⁻¹ and the kon [3] was 18400 M⁻¹ s⁻¹.
